# Results: the Human Domainome abundance scans (Beltran et al. 2025)
# ± gives the uncertainty stated by the source.
# B1: Far upstream element-binding protein 1, residues 98 to 169; numbered along this chain, Q96AE4 (parent)
# chain: RSVMTEEYKVPDGMVGFIIGRGGEQISRIQQESGCKIQIAPDSGGLPERSCMLTGTPESVQSAKRLLDQIVE
# Variants of: B1
# Assay: abundance fitness (aPCA) (normalised: wild type 0, dead -1); higher = more abundant; growth selection in yeast, the domain comes from the species named
# Details: Homo sapiens
row,Variant,abundance fitness
1,RSVMTEEYKVPDGMVGLIIGRGGEQISRIQQESGCKIQIAPDSGGLPERSCMLTGTPESVQSAKRLLDQIVE [F17L],-0.008 ± 0.024
2,RSVMTEEYKVPDGMVGSIIGRGGEQISRIQQESGCKIQIAPDSGGLPERSCMLTGTPESVQSAKRLLDQIVE [F17S],0.063 ± 0.024
3,RSVMTEEYKVPDGMVGDIIGRGGEQISRIQQESGCKIQIAPDSGGLPERSCMLTGTPESVQSAKRLLDQIVE [F17D],0.015 ± 0.033
4,RSVMTEEYKVPDGMVGCIIGRGGEQISRIQQESGCKIQIAPDSGGLPERSCMLTGTPESVQSAKRLLDQIVE [F17C],-0.009 ± 0.032
5,RSVMTEEYKVPDGMVGHIIGRGGEQISRIQQESGCKIQIAPDSGGLPERSCMLTGTPESVQSAKRLLDQIVE [F17H],-0.003 ± 0.035
6,RSVMTEEYKVPDGMVGYIIGRGGEQISRIQQESGCKIQIAPDSGGLPERSCMLTGTPESVQSAKRLLDQIVE [F17Y],-0.019 ± 0.038
7,RSVMTEEYKVPDGMVGNIIGRGGEQISRIQQESGCKIQIAPDSGGLPERSCMLTGTPESVQSAKRLLDQIVE [F17N],0.022 ± 0.038
8,RSVMTEEYKVPDGMVGIIIGRGGEQISRIQQESGCKIQIAPDSGGLPERSCMLTGTPESVQSAKRLLDQIVE [F17I],-0.041 ± 0.04
9,RSVMTEEYKVPDGMVGFIFGRGGEQISRIQQESGCKIQIAPDSGGLPERSCMLTGTPESVQSAKRLLDQIVE [I19F],-0.048 ± 0.054
10,RSVMTEEYKVPDGMVGFIGGRGGEQISRIQQESGCKIQIAPDSGGLPERSCMLTGTPESVQSAKRLLDQIVE [I19G],-0.072 ± 0.025
11,RSVMTEEYKVPDGMVGFIKGRGGEQISRIQQESGCKIQIAPDSGGLPERSCMLTGTPESVQSAKRLLDQIVE [I19K],-0.021 ± 0.037
12,RSVMTEEYKVPDGMVGFIHGRGGEQISRIQQESGCKIQIAPDSGGLPERSCMLTGTPESVQSAKRLLDQIVE [I19H],-0.06 ± 0.038
13,RSVMTEEYKVPDGMVGFIPGRGGEQISRIQQESGCKIQIAPDSGGLPERSCMLTGTPESVQSAKRLLDQIVE [I19P],-0.211 ± 0.029
14,RSVMTEEYKVPDGMVGFIEGRGGEQISRIQQESGCKIQIAPDSGGLPERSCMLTGTPESVQSAKRLLDQIVE [I19E],0.018 ± 0.032
15,RSVMTEEYKVPDGMVGFIDGRGGEQISRIQQESGCKIQIAPDSGGLPERSCMLTGTPESVQSAKRLLDQIVE [I19D],-0.094 ± 0.038
16,RSVMTEEYKVPDGMVGFIMGRGGEQISRIQQESGCKIQIAPDSGGLPERSCMLTGTPESVQSAKRLLDQIVE [I19M],-0.071 ± 0.036
17,RSVMTEEYKVPDGMVGFICGRGGEQISRIQQESGCKIQIAPDSGGLPERSCMLTGTPESVQSAKRLLDQIVE [I19C],-0.001 ± 0.042
18,RSVMTEEYKVPDGMVGFINGRGGEQISRIQQESGCKIQIAPDSGGLPERSCMLTGTPESVQSAKRLLDQIVE [I19N],-0.036 ± 0.045
19,RSVMTEEYKVPDGMVGFILGRGGEQISRIQQESGCKIQIAPDSGGLPERSCMLTGTPESVQSAKRLLDQIVE [I19L],-0.006 ± 0.027

row,Variant,abundance fitness
1,RSVMTEEYKVPDGMVGFIAGRGGEQISRIQQESGCKIQIAPDSGGLPERSCMLTGTPESVQSAKRLLDQIVE [I19A],-0.034 ± 0.027
2,RSVMTEEYKVPDGMVGFPIGRGGEQISRIQQESGCKIQIAPDSGGLPERSCMLTGTPESVQSAKRLLDQIVE [I18P],-0.266 ± 0.031
3,RSVMTEEYKVPDGMVGFYIGRGGEQISRIQQESGCKIQIAPDSGGLPERSCMLTGTPESVQSAKRLLDQIVE [I18Y],-0.21 ± 0.046
4,RSVMTEEYKVPDGMVGFGIGRGGEQISRIQQESGCKIQIAPDSGGLPERSCMLTGTPESVQSAKRLLDQIVE [I18G],-0.206 ± 0.023
5,RSVMTEEYKVPDGMVGFMIGRGGEQISRIQQESGCKIQIAPDSGGLPERSCMLTGTPESVQSAKRLLDQIVE [I18M],-0.049 ± 0.033
6,RSVMTEEYKVPDGMVGFEIGRGGEQISRIQQESGCKIQIAPDSGGLPERSCMLTGTPESVQSAKRLLDQIVE [I18E],-0.147 ± 0.029
7,RSVMTEEYKVPDGMVGFTIGRGGEQISRIQQESGCKIQIAPDSGGLPERSCMLTGTPESVQSAKRLLDQIVE [I18T],-0.175 ± 0.028
8,RSVMTEEYKVPDGMVGFSIGRGGEQISRIQQESGCKIQIAPDSGGLPERSCMLTGTPESVQSAKRLLDQIVE [I18S],-0.226 ± 0.028
9,RSVMTEEYKVPDGMVGFVIGRGGEQISRIQQESGCKIQIAPDSGGLPERSCMLTGTPESVQSAKRLLDQIVE [I18V],-0.031 ± 0.025
10,RSVMTEEYKVPDGMVGFRIGRGGEQISRIQQESGCKIQIAPDSGGLPERSCMLTGTPESVQSAKRLLDQIVE [I18R],-0.324 ± 0.024
11,RSVMTEEYKVPDGMVGFDIGRGGEQISRIQQESGCKIQIAPDSGGLPERSCMLTGTPESVQSAKRLLDQIVE [I18D],-0.175 ± 0.037
12,RSVMTEEYKVPDGMVGFKIGRGGEQISRIQQESGCKIQIAPDSGGLPERSCMLTGTPESVQSAKRLLDQIVE [I18K],-0.264 ± 0.034
13,RSVMTEEYKVPDGMVGFFIGRGGEQISRIQQESGCKIQIAPDSGGLPERSCMLTGTPESVQSAKRLLDQIVE [I18F],-0.036 ± 0.054
14,RSVMTEEYKVPDGMVGFNIGRGGEQISRIQQESGCKIQIAPDSGGLPERSCMLTGTPESVQSAKRLLDQIVE [I18N],-0.236 ± 0.055
15,RSVMTEEYKVPDGMVGFLIGRGGEQISRIQQESGCKIQIAPDSGGLPERSCMLTGTPESVQSAKRLLDQIVE [I18L],-0.012 ± 0.027
16,RSVMTEEYKVPDGMVGFCIGRGGEQISRIQQESGCKIQIAPDSGGLPERSCMLTGTPESVQSAKRLLDQIVE [I18C],-0.145 ± 0.041
17,RSVMTEEYKVPDGMVGFWIGRGGEQISRIQQESGCKIQIAPDSGGLPERSCMLTGTPESVQSAKRLLDQIVE [I18W],-0.108 ± 0.029
18,RSVMTEEYKVPDGMVGFQIGRGGEQISRIQQESGCKIQIAPDSGGLPERSCMLTGTPESVQSAKRLLDQIVE [I18Q],-0.243 ± 0.035
19,RSVMTEEYKVPDGMVGFAIGRGGEQISRIQQESGCKIQIAPDSGGLPERSCMLTGTPESVQSAKRLLDQIVE [I18A],-0.189 ± 0.026
